Test results from patent publication US20150368327A1 (YOKOHAMA CITY UNIVERSITY, published 2015).
Positions count from the first letter of the chain named. Blank lines part the entries; values can stand above or below the binder they belong to.

Experiments:
human Sema 3A protein [1] = target: T1, human Sema 3A protein (human, UniProt Q14563 21-771, limits assumed); assay: direct solid phase ELISA screening with human Sema 3A as antigen
T1 construct: also called Human Sema 3A antigen; human-derived Sema 3A protein
T1 sequence (looked up): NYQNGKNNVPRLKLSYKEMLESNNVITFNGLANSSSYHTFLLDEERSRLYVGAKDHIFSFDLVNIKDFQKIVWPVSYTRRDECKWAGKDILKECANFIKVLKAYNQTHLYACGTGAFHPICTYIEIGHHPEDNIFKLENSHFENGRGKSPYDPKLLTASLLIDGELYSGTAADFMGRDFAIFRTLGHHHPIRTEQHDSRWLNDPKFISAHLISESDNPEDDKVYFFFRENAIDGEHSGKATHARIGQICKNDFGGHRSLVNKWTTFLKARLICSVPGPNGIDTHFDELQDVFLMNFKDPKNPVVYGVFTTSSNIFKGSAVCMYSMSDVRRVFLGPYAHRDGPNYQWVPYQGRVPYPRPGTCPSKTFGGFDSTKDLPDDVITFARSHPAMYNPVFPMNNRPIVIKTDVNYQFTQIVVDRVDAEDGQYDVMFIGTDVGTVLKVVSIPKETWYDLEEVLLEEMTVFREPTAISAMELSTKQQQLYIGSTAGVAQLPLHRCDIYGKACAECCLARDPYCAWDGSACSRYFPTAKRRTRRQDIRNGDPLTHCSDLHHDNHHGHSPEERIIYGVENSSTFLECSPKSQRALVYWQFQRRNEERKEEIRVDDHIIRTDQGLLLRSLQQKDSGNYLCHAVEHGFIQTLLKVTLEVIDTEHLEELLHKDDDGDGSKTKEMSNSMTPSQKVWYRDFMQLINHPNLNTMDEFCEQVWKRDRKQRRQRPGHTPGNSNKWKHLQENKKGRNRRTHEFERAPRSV

mouse Sema 3A protein [2] = target: T2, mouse Sema 3A protein (mouse, UniProt O08665 21-772, limits assumed); assay: direct solid phase ELISA screening with mouse Sema 3A as antigen
T2 construct: Produced from mouse Sema 3A protein expressing cells; also called Mouse Sema 3A antigen
T2 sequence (looked up): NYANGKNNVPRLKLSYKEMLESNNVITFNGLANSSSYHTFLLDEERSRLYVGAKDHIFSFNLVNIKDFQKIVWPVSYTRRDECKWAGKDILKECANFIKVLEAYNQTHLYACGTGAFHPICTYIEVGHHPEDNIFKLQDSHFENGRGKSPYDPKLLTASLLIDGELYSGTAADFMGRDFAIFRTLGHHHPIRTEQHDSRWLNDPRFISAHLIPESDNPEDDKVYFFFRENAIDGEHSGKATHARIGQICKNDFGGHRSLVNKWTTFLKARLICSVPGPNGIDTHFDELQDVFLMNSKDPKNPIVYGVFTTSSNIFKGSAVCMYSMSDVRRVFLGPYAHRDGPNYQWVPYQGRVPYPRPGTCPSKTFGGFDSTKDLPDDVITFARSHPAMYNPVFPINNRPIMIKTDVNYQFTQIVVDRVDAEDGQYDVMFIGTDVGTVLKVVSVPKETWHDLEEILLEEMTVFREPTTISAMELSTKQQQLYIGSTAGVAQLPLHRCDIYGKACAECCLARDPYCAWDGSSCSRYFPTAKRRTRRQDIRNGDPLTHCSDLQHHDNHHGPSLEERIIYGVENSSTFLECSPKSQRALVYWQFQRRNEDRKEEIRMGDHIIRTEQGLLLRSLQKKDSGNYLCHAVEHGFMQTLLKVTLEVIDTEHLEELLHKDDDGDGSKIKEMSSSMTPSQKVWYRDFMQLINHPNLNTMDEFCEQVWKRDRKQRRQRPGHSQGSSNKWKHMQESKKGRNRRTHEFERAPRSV
Procedure: A direct solid phase ELISA was carried out according to the following process. In Day 6 after the step 2-2), 2.5 μg/mL of mouse Sema 3A protein was dispensed into a 384 well Maxisorp (Nunc) by 20 μL each and left to stand overnight. Ovalbumin (OA) and rabbit IgG (rIgG) were immobilized in the plate as negative controls in similar manner in order to examine the specificity of antibodies. On the next day, the content in the plate was removed and 45 μL of blocking solution (PBS buffer containing 1% BSA) was added thereto, followed by incubation at room temperature for one hour. The plate was washed five times with 120μL/well of ELISA washing buffer (PBS containing 0.05 wt % Tween 20), to which were added culture supernatants derived from the colony obtained by selection in the step 2-2) by 25 μL/well and then incubated at room temperature for one hour. The plate was washed five times with 120 μL/well of ELISA washing solution and then to which was added 25 μL of diluent in which a secondary antibody was diluted 2000 times with a blocking buffer and incubated at room temperature for 45 minutes. Anti-chicken IgM-HRP (Bethyl Laboratories, Inc.) was used as a secondary antibody. […] Subsequently, the reaction was quenched with 25 μL of 1N sulfuric acid to determine the absorbance at 450 nm.

[3] = target: bovine serum albumin (BSA) (bovine, UniProt P02769 25-607); assay: antigen solid phase ELISA: coated BSA, anti-human lambda light chain-HRP, A450
Procedure: (§1) The obtained avian-mouse chimeric antibody in Example 1 and the obtained humanized antibodies (Humanized-1 and Humanized-2) and avian-human chimeric antibody in Example 2 were measured for antigenic specificity by antigen solid phase ELISA with PBS buffer. The obtained avian-mouse chimeric antibody in Example 1, which was labeled with biotin, was also measured for antigenic specificity. CL18M (+) avian-mouse chimeric antibody, which served as a negative control, was also measured for antigenic specificity. Particular measurement conditions were as follows.
(§2) Firstly, 2.5 μg/mL of antigen (mouse and human Sema 3A protein) was dispensed into a 384 Well MaxiSorp Plate (Nunc) and reacted overnight at 4° C. in order to coat the plate with the antigen. Otherwise, ovalbumin (OVA) and bovine serum albumin (BSA) were immobilized in the plate as negative controls in similar manner in order to examine specificity of antibodies. After reaction, the plate was washed three times with 50 μL/well of washing solution (PBS containing 0.05% Tween 20), to which was added 25 μL/well of blocking solution (PBS buffer containing 1% bovine serum albumin), and the mixture was reacted for 30 minutes. The resultant product was washed three times with 50 μL/well of washing solution, to which were added 20 μL/well of respective antibodies and the mixture was reacted for one hour. The resultant product was washed five times with 50 μL/well of washing solution, to which was added 20 μL of diluent in which anti-human λ light chain goat antibody labeled with horseradish peroxidase (HRP) (SouthernBiotech) was diluted 4000 times with PBS buffer, in which anti-mouse IgG2A goat antibody labeled with horseradish peroxidase (HRP) (Bethyl Laboratories, Inc.) was diluted 2000 times with PBS buffer or in which streptavidin labeled with horseradish peroxidase (HRP) (Thermo Fisher Scientific K.K.) was diluted 10000 times with PBS buffer and the mixture was reacted for one hour. […] The absorbance was measured at 450 nm using Infinite M1000 (Tecan Trading AG).

human Sema 3A protein [4] = target: T1, human Sema 3A protein; assay: competitive ELISA on plate-coated human Sema 3A; competitor biotin-labelled avian-mouse chimeric antibody (clone No. 4-2) at 60 ng/mL
Procedure: (§3) The obtained clone No. 4-2-derived avian-mouse chimeric antibody in Example 1, the obtained humanized antibodies in Example 2 (Humanized-1 and Humanized-2) and avian-human chimeric antibody were subjected to competitive ELISA to evaluate affinity to the antigen. CL18M (+) avian-mouse chimeric antibody, which served as a negative control, was also measured for affinity to the antigen. Particular measurement conditions were as follows.
(§4) Firstly, 2.5 μg/mL of antigen (mouse and human Sema 3A protein) was dispensed into a 384 Well MaxiSorp Plate (Nunc) and reacted overnight at 4° C. in order to coat the plate with the antigen. The next day, the plate was washed three times with 50 μL/well of washing solution (PBS containing 0.05% Tween 20), to which was added 25 μL/well of blocking solution (PBS containing 1% bovine serum albumin) and the mixture was reacted for 30 minutes. Each of humanized antibodies (Humanized-1 and Humanized-2), avian-human chimeric antibody and avian-mouse chimeric antibody was subjected to serial doubling dilution, to which was mixed anti-Sema 3A avian-mouse chimeric antibody labeled with biotin to the final concentration of 60 ng/mL, and the mixture was reacted with the antigen solid phase plate which was washed three times with 50 μL/well of washing solution for one hour. The plate was washed five times with 50 μL/well of washing solution, to which was added 20 μL/well of diluent in which streptavidin labeled with horseradish peroxidase (HRP) (Thermo Fisher Scientific K.K.) was diluted 10000 times with PBS buffer and the mixture was reacted for 30 minutes. The plate was washed five times with 50 μL/well of washing solution, to which was added 20 μL/well of TMB+(Dako) and the mixture was chromogenically reacted for 20 minutes. Subsequently, to the each well was added 20 μL, of 1M sulfuric acid to quench the reaction. The absorbance was measured at 450 nm using Infinite M1000 (Tecan Trading AG).

mouse Sema 3A protein [5] = target: T2, mouse Sema 3A protein; assay: competitive ELISA on plate-coated mouse Sema 3A; competitor biotin-labelled avian-mouse chimeric antibody (clone No. 4-2) at 60 ng/mL
Procedure: as §3, §4

ovalbumin (OVA) = target: T3, ovalbumin (OVA) (UniProt P01012 2-386); assay: antigen solid phase ELISA: coated ovalbumin, anti-human lambda light chain-HRP, A450
T3 sequence (looked up): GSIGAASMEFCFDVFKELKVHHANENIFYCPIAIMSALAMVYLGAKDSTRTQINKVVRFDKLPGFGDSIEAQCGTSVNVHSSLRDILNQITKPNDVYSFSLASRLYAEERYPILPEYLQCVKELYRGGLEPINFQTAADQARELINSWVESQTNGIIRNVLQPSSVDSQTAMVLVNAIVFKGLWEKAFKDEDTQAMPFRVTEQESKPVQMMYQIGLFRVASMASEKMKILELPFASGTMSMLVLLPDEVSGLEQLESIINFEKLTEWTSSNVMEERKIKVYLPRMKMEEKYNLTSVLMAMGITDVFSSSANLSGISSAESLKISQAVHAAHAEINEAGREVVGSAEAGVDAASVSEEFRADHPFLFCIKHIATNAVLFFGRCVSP
Procedure: as §1, §2

Sequence of bovine serum albumin (BSA) (P02769 25-607 limits assumed): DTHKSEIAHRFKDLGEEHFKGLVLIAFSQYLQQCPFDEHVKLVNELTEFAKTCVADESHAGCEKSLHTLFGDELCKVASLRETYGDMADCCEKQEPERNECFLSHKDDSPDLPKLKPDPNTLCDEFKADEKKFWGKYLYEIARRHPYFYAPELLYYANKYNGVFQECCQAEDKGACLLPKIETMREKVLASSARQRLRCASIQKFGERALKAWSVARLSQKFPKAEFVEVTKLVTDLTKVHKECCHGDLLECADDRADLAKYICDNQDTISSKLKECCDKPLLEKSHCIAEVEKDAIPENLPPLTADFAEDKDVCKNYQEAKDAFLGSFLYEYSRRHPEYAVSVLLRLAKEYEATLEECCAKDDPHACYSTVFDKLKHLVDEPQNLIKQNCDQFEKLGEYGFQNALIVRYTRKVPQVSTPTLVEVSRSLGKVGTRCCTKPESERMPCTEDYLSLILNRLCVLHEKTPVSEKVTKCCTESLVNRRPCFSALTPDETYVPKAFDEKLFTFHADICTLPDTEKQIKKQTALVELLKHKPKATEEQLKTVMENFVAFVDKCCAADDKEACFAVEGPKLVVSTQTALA

B1: Anti-Sema 3A avian-mouse chimeric antibody (clone No. 165 strain-derived) (antibody, V domains shown)
VH: AVTLDESGGGLQTPGGGLSLVCKASGFTFSSYEMQWVRQAPGKGLEWVAGIYTGSTWYGAAVKGRATISRDNGQSTVRLQLNNLRAEDTAIYYCAKSGIGVNSAAFIDAWGHGTEVIVSS
VL: ALTQPASVSANPGETVKITCSGGGSYGGSYYYGWYQQKAPGSAPVTVIYNNNKRPSNIPSRFSGSLSGSTNTLTITGVRADDEAVYFCGSADNSGTAFGAGTTLTVL
notes: IgG from DT40 cells in which the constant region of chicken IgM was replaced with that of mouse IgG
- binding result (human Sema 3A protein [1]): binds

B2: Anti-Sema 3A avian antibody (clone No. 255-72 strain-derived) (antibody, V domains shown)
VH: B1 VH with G17A, T53S, A90G, I91T, V101F, A105G, F106S
VL: B1 VL with G33S, Y35H, A39S, P44L, N50Y, N57D, T96S
notes: Avian (chicken) IgM
- binding result (mouse Sema 3A protein [2]): binds

B3: Anti-Sema 3A avian antibody (clone No. 240-40 strain-derived) (antibody, V domains shown)
VH: AVTLDESGGGLQTPGGALSLVCKASGFTFSSYDMNWVRQAPGKGLEWVAGIYSGSSTYYGAAVKGRATISRDNGQSTLRLQLNNLRAEDTGIYYCAKSAIPVNSAGSIDAWGHGTEVIVSS
VL: B1 VL with G33S, Y35H, A39S, P44L, N50Y, N57D, N93T
notes: Avian (chicken) IgM
- binding result (mouse Sema 3A protein [2]): binds

B4: Anti-Sema 3A avian-mouse chimeric antibody (clone No. 582 strain-derived) (antibody, V domains shown)
VH: B1 VH with G17A, F29M, G50A, G54R, A90G, I91T, V101L
VL: B1 VL with N50T
notes: as for B1
- binding result (human Sema 3A protein [1]): binds

B6: Anti-Sema 3A humanized antibody (Humanized-1) (clone No. 4-2 strain-derived) (antibody, human IgG1, lambda, V domains shown)
VH: EVQLLESGGGLVQPGGSLRLSCAASGFTFSSYPMGWVRQAPGKGLEWVAGIDDDGDSDTRYAPAVKGRATISRDNSKNTVYLQMNSLRAEDTAVYYCAKHTGIGANSAGSIDAWGQGTLVTVSS
VL: SYELTQPPSVSVSPGQTARITCSGGGSYTGSYYYGWYQQKPGQAPVTMIYYNNKRPSDIPERFSGSLSGTTNTLTISGVQAEDEADYYCGSADNSGDAFGTGTKVTVLG
notes: Human IgG1 heavy and human lambda light constant regions
- binding result [3]: no binding (tested: about 2 µg/mL)
- IC50 (human Sema 3A protein [4]): 0.071 µg/mL
- IC50 (mouse Sema 3A protein [5]): 0.12 µg/mL
- binding result (ovalbumin (OVA)): no binding (tested: about 2 µg/mL)

Results, then the binder that gave them:

- binding result [3]: no binding (tested: about 2 µg/mL)
- IC50 (human Sema 3A protein [4]): 0.054 µg/mL
- IC50 (mouse Sema 3A protein [5]): 0.112 µg/mL
- binding result (ovalbumin (OVA)): no binding (tested: about 2 µg/mL)
B5: Anti-Sema 3A avian-human chimeric antibody (clone No. 4-2-derived) (antibody, human IgG1)
heavy: not shown
light: ALTQPASVSANLGGTVKITCSGGGSYTGSYYYGWYQQKSPGSALVTMIYYNNKRPSDIPSRFSGSLSGSTNTLTITGVRADDEAVYFCGSADNSGDAFGAGTTLTVLGQPKANPTVTLFPPSSEELQANKATLVCLISDFYPGAVTVAWKADSSPVKAGVETTTPSKQSNNKYAASSYLSLTPEQWKSHRSYSCQVTHEGSTVEKTVAPTECS

- binding result [3]: no binding (tested: about 2 µg/mL)
- IC50 (human Sema 3A protein [4]): 0.101 µg/mL
- IC50 (mouse Sema 3A protein [5]): 0.157 µg/mL
- binding result (ovalbumin (OVA)): no binding (tested: about 2 µg/mL)
B7: Anti-Sema 3A humanized antibody (Humanized-2) (clone No. 4-2 strain-derived) (antibody, human IgG1, lambda, V domains shown)
VH: B6 VH
VL: B6 VL with M48V
notes: as for B6
